Some results are limits rather than exact numbers.

This data set in a line: soluble fraction after stress (log2 fold change); higher = more stays soluble; pooled small domains, quantitative proteomics. Conditions: stress: pH 4. A digest of the protocol: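 Following acid stress at pH 4, the amount of each small protein domain still soluble was measured in pooled custom libraries by high-throughput quantitative proteomics. Its fold change, on a log2 scale, is higher when more of the domain stayed soluble. This fold change is taken as a measure of aggregation propensity.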
“HMNDIDRFIEALIEQDTLPGTNSRINEDVISEMKMMTSVEDIKAYAIATVGLTGGQVNNALINSGL”: the “soluble fraction (log2)” value was -1.61.

As for “HMNDIVKIYTTHRIINIEGLAKNEPIMLYTINGTLIDKSVSSNGSAQLHVKGIGVYLVKWANNIVKVIVPN”, the “soluble fraction (log2)” value came out at 0.199.

With “HMNDLDSLWDIWENLNERGIGDKSEEGQELRDAIREFIDTNELNVRVTRNKTNEDLLTDIEDALEVAKNS”, the “soluble fraction (log2)” value is -2.07.

With “HMNDLIFSTLAEYDRDTITEIISVVDNTRGIGYEVELVRKDLIAMAAQAEARRDYLPSVIGDVEVFKRNLL”, the “soluble fraction (log2)” value is -0.0414.

In the case of “HMNDNQNKQMLWELLKDNRAFDNFDNKDYKTIIHLFNETVNTIDHRTPNLDLIKKNKIFIQDIMQKLSNL”, the “soluble fraction (log2)” value is -1.04.

Regarding “HMNDSGIIGVVINDHEKYEGHVLEDGFISSSLSALSREIDVAGYFMMVKTVVYEGFFQELKGIGNV”, the “soluble fraction (log2)” value came to 0.079.

For the sequence “HMNDTNEEAVLSIILKNPQATQGAIAKEVGASLSTVKRIMRNLQKSGKLRREGTNRNGSWVVTGQK”, the “soluble fraction (log2)” value came to 0.136.

Consider “HMNDTPPELRAALDLLGLKWPLASVELRARYKDLAKQHHPDATGGDKQAEERLKDINRAYSLLKHRLAKQ”, for which the “soluble fraction (log2)” value came to 0.144.

Regarding “HMNDTVGMNIRRLRKERGMTQGDLADKAGIQRETISKYESNKLTPPSYNLESIEKALKVPAGTLAQ”, the “soluble fraction (log2)” value came out at 0.22.

Turning to “HMNDYIGVDRAKEIALNHARMNESDVQFAKAKLENDDGVVEYEIEFYFGRTEYDYTIDAVSGNIIEYDVEY”, the “soluble fraction (log2)” value is -0.0067.

As to “HMNEDDQLLKVLLAEPLRLEELYNLDLKPQGPYNLQTWIMVHLTELERDGLIARFPDGRYGPAR”, the “soluble fraction (log2)” value was -1.57.

Take “HMNEFAYLIKISPEHNNNRYYRMVAEGDNFRIEMGRIGASPVQMKRPMYLWNETYQKKLQEGYTDRTSYTS”: the “soluble fraction (log2)” value was -0.2.

Consider “HMNEIDLEAAKRIALQNAGVESADAAFTKAQLDYDDGVAEYEIEFVAGSTKYEYEISAANGTVLKSSKESV”, for which the “soluble fraction (log2)” value amounted to 0.243.

With “HMNEIEIHINKLFGKISDSKRKQELMQEITQNLNEKVSDLVSQGQTREQAVKKAIEDFGDIDDLKDELDN”, the “soluble fraction (log2)” value was -0.0968.

For “HMNEIYHQIKVDNVSDDDISLFQYSGIEFDHADYRRGEYIEFAISNRDLSILNNLGYEYQVVHH”, the “soluble fraction (log2)” value was -1.07.

“HMNEKAALIFNEWSDFVSKDDEANAQIKFDELITLYKKTGYTKIALLEVATKQASNGDIEGALAKYSLLID”: the “soluble fraction (log2)” value is -0.919.

As for “HMNEKTGTLTVYSSPGWAKVYIDGEYKGITPVMANLTYGDHYVKLTLDGYDSIGNHIDVNSPDQSYTGKF”, the “soluble fraction (log2)” value was found to be 0.0783.

“HMNELIGVEQLQDLREAIADHGFAEQRVLNWLYQATKGQVSRLEQLPLPMLTTLHKKLGQWADAEAAASSA”: the “soluble fraction (log2)” value is -0.499.

Turning to “HMNELVEATITTQTGRLDKVLTTIFPQYSRSQIQQLLEQGNILVNETLQKGKYKVKAGDKISLTEPAIKE”, the “soluble fraction (log2)” value was no less than 0.43.

Regarding “HMNEMSDTITRLLDAAETGIRLRGYHAVSFRDLAEELGIKSSSVHYYFRQKEDLGLAVVERY”, the “soluble fraction (log2)” value is -0.185.

As to “HMNENDPRVIKTRRLLLDSFVVLVRKKDFTSISVKDITDSAQVNRATFYAHFQDKYDILEYMVID”, the “soluble fraction (log2)” value was -0.198.

On to “HMNENNFIVAMRERLAQFIETSGTSQSRIAKELGVSKSTVSLFLGGTYGGNNQELARNLEQLLSMGAARR”, for which the “soluble fraction (log2)” value turned out to be 0.212.

For “HMNEPMITEVKRINYGSIKEIAKNLDVFKGKNGTVIIDERTNTLILTDLSENIEKMLWSIEITD”, the “soluble fraction (log2)” value was -0.855.

On to “HMNERTKIPLRKIEIGQAVYVDTLEKVGTVIDIQGKQFKVDLAGLPITVAARNLFYPLPQEAKP”, for which the “soluble fraction (log2)” value was -0.0254.

As for “HMNESADMPDVVNMSLEAAKSQLEGMGLKVKVENVEDDSVEENHVIKTSPVSGEKVKLGTTVTLTVSKGR”, the “soluble fraction (log2)” value is -0.279.

In the case of “HMNESEALIARIENLPPIEDLTEKHAEEVKALMTVYSKLKMSDRILVTNYGVLKKDFDALVKKGFLTNED”, the “soluble fraction (log2)” value is 0.0976.

For “HMNETHANKVYNFLKKKKKPLSAYEILKELASEGISAPTTIYRALNKLVSNGLIHKIESLNAWTV”, the “soluble fraction (log2)” value is 0.185.

In the case of “HMNETLKQIRINALQYSEKDMATKLGLPLSEYKEIENDKPLNFTLLIRLSQAVGKTIDDLLNAQ”, the “soluble fraction (log2)” value was -0.128.

Turning to “HMNEVETWSVQADGATGRIDKWLAEQNEWSRSQVQEWLKAGRVEVDGRVVKPNYKLSGTESIAVHIPEAV”, the “soluble fraction (log2)” value was -0.0787.

For “HMNEWVSVEERLPTDERPVLAFIGYADTMNGFITTSYYFRFDPDPHWLGEGLIPVGLKTLFWMPLPAP”, the “soluble fraction (log2)” value was -0.0414.

As for “HMNEYSLVPDIYGMTYDDALSSLRNVGLDGRLALASTNEDLANADTRVVWQSKEAGSIIDKGSNVMFVID”, the “soluble fraction (log2)” value was -1.27.

Regarding “HMNFAERIKELRKEKGITQIDLAEAVGLSKGTVAMWEVDKREANFDTLNKLSDYFQVSIDYLLGRSNDRS”, the “soluble fraction (log2)” value is -0.206.

On to “HMNFDVETGLPLDSRLVVSGLIQRDGINSLKRYEGMIVYVESEAKNYQLVGGISNTDWAELS”, for which the “soluble fraction (log2)” value is -0.426.

As for “HMNFGEVLQTKRKSMGLTQEDLADKLFVSSETISNWETNKTTPDIDNVIRISQLFDISLNNLLL”, the “soluble fraction (log2)” value was -0.89.

As to “HMNFIPGEKINLKIVQEGKEKNQGVGYLSDGTMVIVENGSQKLGQDVEVVVIKNIQSSAGKIVFGDISK”, the “soluble fraction (log2)” value came out at 0.227.

Consider “HMNFSRQREIIYEQVRNFPVHPTAEEVYRALKNDNPNLSLGTVYRNLNQLSEAGMLLKIPIADGSDRFDGR”, for which the “soluble fraction (log2)” value is -0.56.

“HMNFTETENRIYEEILKNVKQHKKKTVVQIAEKVDVAPSYVIKVAKKLGYSGLNEMWYSLSGIY”: the “soluble fraction (log2)” value was -0.0318.

Regarding “HMNFTMERLYTKELTSEDIDEIKKELNSMGYTEGVEFNIIKGDKTSFIMAERQLKAKMLSHLSDLGLPRGA”, the “soluble fraction (log2)” value amounted to 0.0335.

On to “HMNGAAAEQARKQLMTALKASEFIAQDKLDEWLDALALPQEKRSAIIDAVDELDYEEAISELEN”, for which the “soluble fraction (log2)” value was -0.2.

Take “HMNGDWISARQEYYIRGLWDLASRAKDEASLQAMLQRIAGVTQIEWISKEKATKVILALRDIAKK”: the “soluble fraction (log2)” value is -0.154.

“HMNGELSQRQWQILRLIAQGLSNEQMARQLFVAPSTIKTHINHLYAKLGVRTRAEAQAIARQKLMA”: the “soluble fraction (log2)” value was -0.0448.

For the sequence “HMNGIFEYSDAKKVPSLVEIENAYRRARVNGAEKFAVIINGEYFGYNPQKRGIYKLNDGEYQIL”, the “soluble fraction (log2)” value came to 0.115.

For “HMNGKPDMTPIPAGSRNNDLHAWAYGRLLNHPDNAEAIRRDLFERGQTSGLKESELETIWQSIRRQLGGD”, the “soluble fraction (log2)” value was determined as 0.126.

For “HMNGKTIEVPDITEKSIAEAQLILNQKKLRYNVVDSTRFDPAYLPFSVLTQEPEAGDEVKKNRTIYITLNP”, the “soluble fraction (log2)” value was -0.0716.

As to “HMNGLDSVLRNWARQTLASGGENLLGDLTDHVTRLIISEALIMTGGNRTRAAELLGLSRPTLLAKMDKLNL”, the “soluble fraction (log2)” value was -0.789.

Consider “HMNGPTPEEKLAVVNAEFVRQYGDEYEELELEGEELEEYYQKALNKEDFEYDIPHLPGWDEP”, for which the “soluble fraction (log2)” value is -0.905.

Consider “HMNHHEIIMKNIDTLLKEKNISISKLEKSLGISNGYISRLRNGKYNFSLDLLLKLAKKFKISIDYLLTDFD”, for which the “soluble fraction (log2)” value was -0.119.

With “HMNHNPSIARKISREIKRGAPPESLLNLARTVNDSYYRSLSFVSIAYSIKGKKSKELFEEAISNLT”, the “soluble fraction (log2)” value is -0.0826.

As for “HMNHTIEENDRVLILDPRGKKYLITVTNRVFHTNLGKLDISELIGKNYGDKIKSHMGKNFSILKPNLIDYI”, the “soluble fraction (log2)” value amounted to 0.053.

Consider “HMNIAEIGQKVAQQRVALGISQERLAKLSDLSRSTIHHLEHGTLHEIGAAKLFKLLSLLDIQLK”, for which the “soluble fraction (log2)” value is 0.159.

Take “HMNIDQAFISDLERMIMPDISKYELMDIISIMENSGFTIKVEGTGNEVRQVIKPGSKLKKGQKIKIKL”: the “soluble fraction (log2)” value was -1.79.

Consider “HMNIEIIEVQEESTPSEISKIISTESTKIIEDLLNLGVMASLETPLKNQDIEKLLEGYGYIVDIKP”, for which the “soluble fraction (log2)” value was -1.84.

With “HMNIGEKIKKIRTQQNKSTYELADIINKNGFKISQSAISKIENGRKKIDIETLEEIAKALDIEVDLLIT”, the “soluble fraction (log2)” value was -0.282.

Consider “HMNIGIVSLAAVPMRKEPSDRAEMVNQILFGETFDVLEEQEKWTLVQLHHDAYQGWIDRKQWDYASGIAD”, for which the “soluble fraction (log2)” value was -1.3.

For “HMNIIHNPSKNFIESDLNDLKEGMEIEHKKFGYGLIKSIDKTQNHQKAVVNFKLVGEKTLLLSFARLRIV”, the “soluble fraction (log2)” value was -0.519.

Consider “HMNIILFLDELHRLLSDLPPEERNQAIKYYEDYFEDAGPENEQAILKELGSPQELANQIKATT”, for which the “soluble fraction (log2)” value was -1.36.

“HMNIIMLGEFIKEQRIKRKMTQEYLASELGISRPTYSQIELGTRELTIPEARKMAAIFNISLEDFLAEKE”: the “soluble fraction (log2)” value was determined as 0.149.

On to “HMNIMNINQALNVLNLKGTVSKEELAKAYKKMAIKYHPDRNPTGVEMMKVINSAYEFLKGLNLEEIKH”, for which the “soluble fraction (log2)” value came to 0.252.

“HMNINLNVGKRLKSIRQNKELSLDEVSNLTNVSKPALAQIERGASSPTINTLWKISKGLKVPLSYFLQE”: the “soluble fraction (log2)” value was no less than 0.43.

In the case of “HMNINVRNTGIKAVENNIINLSSDQRTFTWASNDRKLITVPFDENPYSALAAWFKTDEGIEVYQTIEKKL”, the “soluble fraction (log2)” value is -0.294.

With “HMNIWNEWAFKKWIESDEYTGPDMTDFGHRTLVDEEFSKQYKEQMSLFKERVLTDDEFSAKYGDL”, the “soluble fraction (log2)” value is -2.07.

In the case of “HMNKEDIASNEKLLGLLNHMSKVLKDIDFIKDDRPMIVRKINHIFKKATLSEEEINILRGVLSAIENHS”, the “soluble fraction (log2)” value is -0.104.

As to “HMNKEKLLEMFESMSIIIVQSLEEKEQTEDRIETELFNEAKTPRYSTLTKQDIQSVIRNILITVGV”, the “soluble fraction (log2)” value is -0.959.

On to “HMNKELVVPDLTDMRVKDAEFEAHQVGMRTEIVDSVYVRRLKRGYVYKQNPVPGSKVKKGRRIALTINAV”, for which the “soluble fraction (log2)” value was determined as 0.1.

As for “HMNKETYIDALERKLWDRLDPDQLRDIISYYKDYFAMEAAKGISEEETIRKLGDPALLAKSILAAE”, the “soluble fraction (log2)” value was -0.145.

On to “HMNKEVDLPNFVGMTKENAQAQADKIKIKLEFEEEYSSDVEEGKIISQNPEYKENYKIKEKSTVSLKI”, for which the “soluble fraction (log2)” value is 0.0516.

For “HMNKFKVNERVRVIATGEIGIVKGREILPVEGSKRVNIEYLVKVGNGFSNWKAFSKKELEPVR”, the “soluble fraction (log2)” value was no less than 0.43.

For the sequence “HMNKFRVGDEVEIVKLDKTIQHFGGEEVLSPVGTKTYITYVDVTGKEIEIDKDIYSYHADDLTLV”, the “soluble fraction (log2)” value was -1.76.
